Target: MBP-16E6(4C4S) (MBP-GGGGS-TEV-16E6, construct used in SPR) (HPV16, UniProt P03126 1-158, C87S | C104S | C118S | C147S)
Assay: SPR

B1: full-length human E6AP (C-terminal TEV-6xHis-Avi) (enzyme)
chain: MEKLHQCYWKSGEPQSDDIEASRMKRAAAKHLIERYYHQLTEGCGNEACTNEFCASCPTFLRMDNNAAAIKALELYKINAKLCDPHPSKKGASSAYLENSKGAPNNSCSEIKMNKKGARIDFKDVTYLTEEKVYEILELCREREDYSPLIRVIGRVFSSAEALVQSFRKVKQHTKEELKSLQAKDEDKDEDEKEKAACSAAAMEEDSEASSSRIGDSSQGDNNLQKLGPDDVSVDIDAIRRVYTRLLSNEKIETAFLNALVYLSPNVECDLTYHNVYSRDPNYLNLFIIVMENRNLHSPEYLEMALPLFCKAMSKLPLAAQGKLIRLWSKYNADQIRRMMETFQQLITYKVISNEFNSRNLVNDDDAIVAASKCLKMVYYANVVGGEVDTNHNEEDDEEPIPESSELTLQELLGEERRNKKGPRVDPLETELGVKTLDCRKPLIPFEEFINEPLNEVLEMDKDYTFFKVETENKFSFMTCPFILNAVTKNLGLYYDNRIRMYSERRITVLYSLVQGQQLNPYLRLKVRRDHIIDDALVRLEMIAMENPADLKKQLYVEFEGEQGVDEGGVSKEFFQLVVEEIFNPDIGMFTYDESTKLFWFNPSSFETEGQFTLIGIVLGLAIYNNCILDVHFPMVVYRKLMGKKGTFRDLGDSHPVLYQSLKDLLEYEGNVEDDMMITFQISQTDLFGNPMMYDLKENGDKIPITNENRKEFVNLYSDYILNKSVEKQFKAFRRGFHMVTNESPLKYLFRPEEIELLICGSRNLDFQALEETTEYDGGYTRDSVLIREFWEIVHSFTDEQKRLFLQFTTGTDRAPVGGLGKLKMIIAKNGPDTERLPTSHTCFNVLLLPEYSSKEKLKERLLKAITYAKGFGML
modifications: biotin on the Avi tag (BirA biotin-protein ligase) in the SPR experiments
- koff: 0.0004 s⁻¹

— article PMC10902388 (2024)
